Measured values taken from article PMC4043820.

Key:
[1] = molecular target: OsWRKY53SA S43A;S72A;S77A;S89A;S96A;S108A (Oryza sativa (rice)) (UniProt A7BEY7); test: EMSA; conditions: 12 mM HEPES-KOH pH 8.0, 60 mM KCl, 4 mM MgCl2, 1 mM EDTA, 12% glycerol, 1 mM DTT, 2.5 mM PMSF, 0.1 ug protein in 20 ul, 20 min on ice; 6% PAGE in 1x TBE at …
[2] = molecular target: OsWRKY53SD S43D;S72D;S77D;S89D;S96D;S108D (Oryza sativa (rice)) (UniProt A7BEY7); test: EMSA; conditions: 12 mM HEPES-KOH pH 8.0, 60 mM KCl, 4 mM MgCl2, 1 mM EDTA, 12% glycerol, 1 mM DTT, 2.5 mM PMSF, 0.1 ug protein in 20 ul, 20 min on ice; 6% PAGE in 1x TBE at …
Sequence of OsWRKY53SD S43D;S72D;S77D;S89D;S96D;S108D (Oryza sativa (rice)) (A7BEY7 entry or part of it S43D S72D S77D S89D S96D S108D): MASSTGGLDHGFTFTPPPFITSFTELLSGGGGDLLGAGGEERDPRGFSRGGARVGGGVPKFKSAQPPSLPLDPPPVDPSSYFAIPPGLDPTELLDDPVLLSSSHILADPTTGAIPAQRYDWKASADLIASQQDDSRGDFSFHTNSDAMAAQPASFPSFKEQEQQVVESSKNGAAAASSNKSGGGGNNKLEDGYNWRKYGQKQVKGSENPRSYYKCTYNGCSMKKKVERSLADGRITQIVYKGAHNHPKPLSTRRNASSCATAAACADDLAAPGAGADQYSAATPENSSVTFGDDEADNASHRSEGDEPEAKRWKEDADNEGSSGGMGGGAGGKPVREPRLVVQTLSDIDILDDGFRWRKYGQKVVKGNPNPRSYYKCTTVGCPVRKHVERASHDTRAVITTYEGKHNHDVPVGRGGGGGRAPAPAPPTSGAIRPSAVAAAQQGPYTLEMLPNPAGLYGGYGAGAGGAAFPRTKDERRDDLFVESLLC

Sequence of OsWRKY53SA S43A;S72A;S77A;S89A;S96A;S108A (Oryza sativa (rice)) (A7BEY7 entry or part of it S43A S72A S77A S89A S96A S108A): as the sequence (A7BEY7 entry or part of it S43D S72D S77D S89D S96D S108D) above, with D43A, D72A, D77A, D89A, D96A, D108A counted along it

For “TTTGGGGATGCTTCGGCGAAGGGGGTGAGGTCAAAGCTCGTGCGGTTTGACCGGTCAGACGAGGCGGCTGAGGCTCGCGC (double strand) [W-box probe (W)]”, the binding [1] was “binds” and the binding [2] was “binds”.
